Source: US20160136234A1

Assays:
Assay in all cases: cell-based or functional assay
Abl (Q252H) (h) (human) = Abl (Q252H) (h) (human) (UniProt P00519)
Lck (h) (human) = Lck (h) (human) (UniProt P06239)
MEK1 (h) (human) = MEK1 (h) (human) (UniProt Q02750)
MLK1 (h) (human) = MLK1 (h) (human) (UniProt P80192)
MSSK1 (h) (human) = MSSK1 (h) (human) (UniProt Q9UPE1)
MST1 (h) (human) = target: T1, MST1 (h) (human) (UniProt Q13043)
T1 sequence (looked up): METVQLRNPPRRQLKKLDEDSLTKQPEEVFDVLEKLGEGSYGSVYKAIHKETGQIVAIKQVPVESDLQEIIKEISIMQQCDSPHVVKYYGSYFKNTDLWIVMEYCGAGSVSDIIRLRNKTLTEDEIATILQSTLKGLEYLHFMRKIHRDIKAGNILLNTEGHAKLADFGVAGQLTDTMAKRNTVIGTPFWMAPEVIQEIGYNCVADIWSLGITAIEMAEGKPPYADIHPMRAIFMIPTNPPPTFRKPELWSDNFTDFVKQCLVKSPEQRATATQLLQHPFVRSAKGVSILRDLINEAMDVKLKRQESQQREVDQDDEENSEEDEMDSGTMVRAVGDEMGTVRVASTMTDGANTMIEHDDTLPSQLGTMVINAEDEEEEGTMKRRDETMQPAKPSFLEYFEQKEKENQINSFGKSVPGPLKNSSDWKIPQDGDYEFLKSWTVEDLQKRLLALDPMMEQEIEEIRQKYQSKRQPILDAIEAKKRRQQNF

MST3 (h) (human) = MST3 (h) (human) (UniProt Q9Y6E0)
Pim-3 (h) (human) = Pim-3 (h) (human) (UniProt Q86V86)
Plk3 (h) (human) = Plk3 (h) (human) (UniProt Q9H4B4)
SAPK3 (h) (human) = target: T2, SAPK3 (h) (human) (UniProt P53778)
T2 sequence (looked up): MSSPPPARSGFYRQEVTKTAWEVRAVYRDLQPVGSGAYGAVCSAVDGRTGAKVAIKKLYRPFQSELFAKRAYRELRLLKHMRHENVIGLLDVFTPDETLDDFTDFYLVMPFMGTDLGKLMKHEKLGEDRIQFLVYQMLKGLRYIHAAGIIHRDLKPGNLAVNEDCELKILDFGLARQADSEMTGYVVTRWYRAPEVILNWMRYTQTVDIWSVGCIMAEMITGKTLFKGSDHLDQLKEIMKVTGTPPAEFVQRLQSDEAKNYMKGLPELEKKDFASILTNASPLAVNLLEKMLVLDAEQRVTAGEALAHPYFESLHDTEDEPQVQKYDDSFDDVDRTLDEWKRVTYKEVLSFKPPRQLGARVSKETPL

Syk (h) (human) = Syk (h) (human) (UniProt P43405)
TBK1 (h) (human) = target: T3, TBK1 (h) (human) (UniProt Q9UHD2)
T3 sequence (looked up): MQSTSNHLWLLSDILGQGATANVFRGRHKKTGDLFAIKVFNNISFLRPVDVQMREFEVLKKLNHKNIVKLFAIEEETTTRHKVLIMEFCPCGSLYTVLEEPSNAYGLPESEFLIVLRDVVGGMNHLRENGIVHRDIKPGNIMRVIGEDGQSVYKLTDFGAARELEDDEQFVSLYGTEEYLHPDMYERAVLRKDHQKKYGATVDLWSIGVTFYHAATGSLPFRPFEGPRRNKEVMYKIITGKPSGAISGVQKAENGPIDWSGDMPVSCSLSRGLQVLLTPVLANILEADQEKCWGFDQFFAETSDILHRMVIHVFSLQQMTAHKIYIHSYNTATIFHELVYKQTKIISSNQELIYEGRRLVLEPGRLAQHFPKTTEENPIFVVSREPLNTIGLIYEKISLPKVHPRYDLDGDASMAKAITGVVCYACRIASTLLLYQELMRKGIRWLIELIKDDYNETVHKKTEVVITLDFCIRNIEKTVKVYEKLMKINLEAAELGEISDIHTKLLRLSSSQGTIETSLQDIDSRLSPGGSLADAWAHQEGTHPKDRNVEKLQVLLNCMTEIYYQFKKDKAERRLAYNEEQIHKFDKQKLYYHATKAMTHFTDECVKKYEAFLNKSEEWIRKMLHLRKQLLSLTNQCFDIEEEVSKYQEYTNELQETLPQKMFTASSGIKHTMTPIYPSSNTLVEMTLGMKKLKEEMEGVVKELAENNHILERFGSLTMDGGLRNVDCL

Tie2(Y897S) (h) (human) = Tie2(Y897S) (h) (human) (UniProt Q02763)
Sequence of Tie2(Y897S) (h) (human) (Q02763 771-1124 Y897S limits assumed): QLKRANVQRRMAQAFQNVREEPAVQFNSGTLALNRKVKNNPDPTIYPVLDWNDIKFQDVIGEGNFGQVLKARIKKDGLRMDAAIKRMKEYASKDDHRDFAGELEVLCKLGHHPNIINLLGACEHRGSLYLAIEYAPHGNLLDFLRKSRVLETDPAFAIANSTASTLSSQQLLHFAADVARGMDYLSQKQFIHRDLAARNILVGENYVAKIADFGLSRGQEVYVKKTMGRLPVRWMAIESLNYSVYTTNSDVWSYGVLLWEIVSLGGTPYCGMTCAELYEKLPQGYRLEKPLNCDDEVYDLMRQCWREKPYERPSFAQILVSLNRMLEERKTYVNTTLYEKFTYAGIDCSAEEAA

cSRC (h) (human) = cSRC (h) (human) (UniProt P12931)

Sequence of Abl (Q252H) (h) (human) (P00519 27-1130 Q252H limits assumed): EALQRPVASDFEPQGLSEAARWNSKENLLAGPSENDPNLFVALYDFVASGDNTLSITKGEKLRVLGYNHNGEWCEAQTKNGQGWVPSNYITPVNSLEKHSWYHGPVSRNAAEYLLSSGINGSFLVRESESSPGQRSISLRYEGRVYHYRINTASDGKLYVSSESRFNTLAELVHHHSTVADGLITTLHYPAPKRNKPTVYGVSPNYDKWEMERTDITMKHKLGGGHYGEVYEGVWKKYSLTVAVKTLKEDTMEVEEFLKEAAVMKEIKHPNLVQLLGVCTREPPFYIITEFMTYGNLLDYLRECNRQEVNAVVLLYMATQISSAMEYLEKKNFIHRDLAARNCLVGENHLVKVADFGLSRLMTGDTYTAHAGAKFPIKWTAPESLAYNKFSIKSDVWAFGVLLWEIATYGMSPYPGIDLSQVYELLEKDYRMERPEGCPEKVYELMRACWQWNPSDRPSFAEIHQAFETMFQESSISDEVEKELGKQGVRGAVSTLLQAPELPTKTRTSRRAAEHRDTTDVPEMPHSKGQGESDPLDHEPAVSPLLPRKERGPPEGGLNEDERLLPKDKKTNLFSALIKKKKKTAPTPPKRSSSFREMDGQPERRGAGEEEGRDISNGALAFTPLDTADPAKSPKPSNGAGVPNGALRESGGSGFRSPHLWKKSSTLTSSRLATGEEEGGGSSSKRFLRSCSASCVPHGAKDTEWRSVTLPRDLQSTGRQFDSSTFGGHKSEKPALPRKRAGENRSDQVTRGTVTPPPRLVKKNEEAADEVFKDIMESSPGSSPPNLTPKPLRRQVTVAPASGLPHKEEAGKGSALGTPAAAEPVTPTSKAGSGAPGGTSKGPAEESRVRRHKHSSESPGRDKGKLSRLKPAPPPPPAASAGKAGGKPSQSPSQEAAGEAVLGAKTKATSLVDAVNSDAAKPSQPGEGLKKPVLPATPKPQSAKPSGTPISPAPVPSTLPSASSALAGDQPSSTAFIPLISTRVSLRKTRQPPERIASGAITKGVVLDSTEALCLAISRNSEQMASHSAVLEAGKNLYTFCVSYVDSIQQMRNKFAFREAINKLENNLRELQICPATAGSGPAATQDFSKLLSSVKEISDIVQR

- % activity at 100 µM (Abl (Q252H) (h) (human)): 82%
- % activity at 100 µM (Lck (h) (human)): -2%
- % activity at 100 µM (MEK1 (h) (human)): 77%
- % activity at 100 µM (MLK1 (h) (human)): 40%
- % activity at 100 µM (MSSK1 (h) (human)): 77%
- % activity at 100 µM (MST1 (h) (human)): 14%
- % activity at 100 µM (MST3 (h) (human)): 45%
- % activity at 100 µM (Pim-3 (h) (human)): 80%
- % activity at 100 µM (Plk3 (h) (human)): 127%
- % activity at 100 µM (SAPK3 (h) (human)): 84%
- % activity at 100 µM (Syk (h) (human)): 24%
- % activity at 100 µM (TBK1 (h) (human)): 37%
- % activity at 100 µM (Tie2(Y897S) (h) (human)): 83%
- % activity at 100 µM (cSRC (h) (human)): 26%
Substance: MMI-0300 (peptide)
